The target in the assay is anti-CD52 IgG1-RGY (alemtuzumab with E345R, E430G and S440Y). Kind of assay: native MS; anti-CD52 IgG1-RGY at a total IgG1 concentration of 2 µM, no peptide; 150 mM ammonium acetate pH 7.5; monomer and hexamer in solution.

B1: anti-CD52 IgG1-RGY (alemtuzumab with E345R, E430G and S440Y) (antibody, V domains shown)
VH: QVQLQESGPGLVRPSQTLSLTCTVSGFTFTDFYMNWVRQPPGRGLEWIGFIRDKAKGYTTEYNPSVKGRVTMLVDTSKNQFSLRLSSVTAADTAVYYCAREGHTAAPFDYWGQGSLVTVSS
VL: DIQMTQSPSSLSASVGDRVTITCKASQNIDKYLNWYQQKPGKAPKLLIYNTNNLQTGVPSRFSGSGSGTDFTFTISSLQPEDIATYYCLQHISRPRTFGQGTKVEIK
With B1, the stoichiometry N was found to be 6.
